Reference: publication PMC7447634, “KIN10 promotes stomatal development through stabilization of the [sequence] transcription factor” (Nature Communications, 2020)

Target: T1, maltose-binding protein (MBP)-KIN10 (Arabidopsis thaliana, UniProt Q38997-2 1-512)
T1 construct: KIN10, catalytic alpha subunit of SnRK1, Arabidopsis thaliana; full-length cDNA without stop codon in pMAL2CGW (N-MBP); also called KIN10-MBP; source: bacteria (Escherichia coli), purified (amylose resin); not shown: MBP, N-terminal, kept
T1 sequence (looked up): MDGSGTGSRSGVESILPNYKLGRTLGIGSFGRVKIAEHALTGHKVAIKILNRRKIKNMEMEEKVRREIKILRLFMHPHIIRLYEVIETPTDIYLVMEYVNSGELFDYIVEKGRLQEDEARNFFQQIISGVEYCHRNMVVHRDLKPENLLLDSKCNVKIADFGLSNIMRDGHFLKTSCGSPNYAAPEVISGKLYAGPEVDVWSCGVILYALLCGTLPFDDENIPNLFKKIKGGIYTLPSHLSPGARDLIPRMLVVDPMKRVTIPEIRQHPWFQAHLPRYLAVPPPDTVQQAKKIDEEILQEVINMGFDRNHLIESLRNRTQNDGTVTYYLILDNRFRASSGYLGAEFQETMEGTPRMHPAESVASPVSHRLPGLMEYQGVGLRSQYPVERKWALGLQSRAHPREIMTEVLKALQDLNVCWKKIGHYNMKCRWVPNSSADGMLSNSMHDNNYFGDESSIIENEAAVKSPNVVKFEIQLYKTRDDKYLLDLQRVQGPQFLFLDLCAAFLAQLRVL
Test: pull-down; 1 µg GST-SPCH bound to glutathione agarose beads incubated with 1 µg MBP or MBP-KIN10; 20 mM Tris-HCl pH 7.5, 100 mM NaCl, 1 mM EDTA, 4 °C, 1 h; washed with 300 mM NaCl, 0.1% Nonidet P-40; blot with anti-MBP
Settings: both partners purified

- binding result: binds
B1: glutathione S-transferase (GST)-SPCH (natural protein, Arabidopsis thaliana, UniProt Q700C7 1-364, looked up)
chain: MQEIIPDFLEECEFVDTSLAGDDLFAILESLEGAGEISPTAASTPKDGTTSSKELVKDQDYENSSPKRKKQRLETRKEEDEEEEDGDGEAEEDNKQDGQQKMSHVTVERNRRKQMNEHLTVLRSLMPCFYVKRGDQASIIGGVVEYISELQQVLQSLEAKKQRKTYAEVLSPRVVPSPRPSPPVLSPRKPPLSPRINHHQIHHHLLLPPISPRTPQPTSPYRAIPPQLPLIPQPPLRSYSSLASCSSLGDPPPYSPASSSSSPSVSSNHESSVINELVANSKSALADVEVKFSGANVLLKTVSHKIPGQVMKIIAALEDLALEILQVNINTVDETMLNSFTIKIGIECQLSAEELAQQIQQTFC
notes: full-length cDNA without stop codon in pDEST15 (N-GST); source: bacteria, purified (glutathione beads); not shown: GST, N-terminal, kept
